Reference: the RNAGym collection of RNA variant scans (doi:10.7554/elife.90254)

B1: OR4K15 (parent)
chain: GUUAACGGUCAUAGGCCAUGGAAACUAGGAGCACCAUUUCGCUGCCAGUGAAGAAAUGAACAAAGAAAAUCUGGGCCAGGCAGGCAUCAAAAGAAAUAGUCUUGCGCUCAACCAGAAAGUCUGUAAUCAUUUUAAGGGUA

Variants of: B1
Assay: self-cleavage, relative activity (ratio to wild type); higher = more cleavage; in vitro, sequencing; the parent is a self-cleaving ribozyme

Variant	self-cleavage
A11G C121A	1.62
A11U U57C	0.73
C10U U39C	1.02
A11G A82U	0.2
A11U C88A	1.99
A13G A96U	1.14
U12C G44A	2.15
U12C U97C	0.65
A11U A116C	0.23
A11U A116G	1
A11U G75C	0.16
A11G U26C	1.27
A13G C34G	0.83
U12A A56G	1.58
A11G U122C	1
A13G A60G	1.33
A11U A56G	1.1
U12C A125G	0.5
A11G A111G	0.04
A11G A140U	1.31
A11G A140G	0.96

Variant	self-cleavage
A11G A110G	0.12
U12C A96G	1.02
A11G U102C	1.41
A11U A114G	0.61
A11U A114U	0.05
A13G A51G	0.85
A13G U100C	1.34
A13G A24G	1.05
U12C G28A	1.29
U12C A62G	1.18
A13G G41U	1.28
A13G G41A	0.97
A13G G41C	1.02
A11G U131C	0.79
A11G C107G	0.05
A13G A94U	1.4
A13G A94G	0.6
A11G A126U	1.17
A11G A60U	1.02
A11G A91U	1.22
A11G A91G	0.73

Variant	self-cleavage
A11U U39A	1.34
A11U U39C	1.11
A13G U38A	0.78
A11G A116C	0.1
A11G A129C	0.66
A11U A18G	1.38
A11G A125G	0.38
A13G U87C	1.5
U12A A96G	1.43
U12A A96U	1.67
A11U U127C	1.06
A11U A90G	0.51
U12A A90G	0.57
A11G A90G	1.04
A11G A90U	1.69
A11C A13G	0.93
A13G A36G	0.49
A11U A89U	1.59
A11U A89G	1.21
C10U U108C	0.06
A11U U72C	0.35

Variant	self-cleavage
A11U U72A	0.53
U12G A22G	1.13
U12C A36G	1.44
A11C U122C	1.46
A11G G41A	0.82
A11G G41U	1.91
A13G U124C	0.57
A13G A114G	0.31
A11G A78U	0.26
A11G A78G	0.54
U12A A60G	1.36
U12A A60C	1.18
A11G C71A	0.71
U12C A59G	0.86
A13C A23G	1.36
U12A U102A	1.08
U12A	1.19
U12G	1.33
U12C	1.01
U12A A91U	1.64
